Reference: patent US20150344570A1 (published 2015)

T1: FcgRIIaH (human, UniProt P12318 34-217)
T1 construct: extracellular domain; also called FcγRIIa H; FcgRIIa type H; not shown: His tag attached to the C terminus
T1 sequence (looked up): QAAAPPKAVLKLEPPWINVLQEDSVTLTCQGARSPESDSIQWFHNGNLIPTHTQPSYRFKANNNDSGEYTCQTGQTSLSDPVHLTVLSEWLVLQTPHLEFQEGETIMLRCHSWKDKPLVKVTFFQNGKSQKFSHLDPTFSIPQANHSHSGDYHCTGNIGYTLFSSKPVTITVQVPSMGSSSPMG

T2: FcgRIIaR (human, UniProt P12318 34-217)
T2 construct: extracellular domain; also called FcγRIIa R; FcgRIIa type R; not shown: His tag attached to the C terminus
T2 sequence (looked up): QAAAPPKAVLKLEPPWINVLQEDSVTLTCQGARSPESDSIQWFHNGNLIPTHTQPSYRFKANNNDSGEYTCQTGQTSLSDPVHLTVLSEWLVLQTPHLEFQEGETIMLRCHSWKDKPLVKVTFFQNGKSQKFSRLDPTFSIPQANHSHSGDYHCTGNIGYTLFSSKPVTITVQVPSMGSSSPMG

T3: FcgRIIb (human, UniProt P31994 43-217)
T3 construct: extracellular domain; also called FcγRIIb; 2b; not shown: His tag attached to the C terminus
T3 sequence (looked up): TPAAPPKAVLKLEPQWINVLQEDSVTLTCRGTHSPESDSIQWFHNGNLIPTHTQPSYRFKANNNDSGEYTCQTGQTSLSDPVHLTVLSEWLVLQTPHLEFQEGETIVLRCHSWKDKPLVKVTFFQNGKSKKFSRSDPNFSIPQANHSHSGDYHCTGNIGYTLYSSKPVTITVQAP


Columns and labels:
Experiment in all cases: SPR (Biacore); KD of H240-Kn033/H240-Hl033/L73-k0 divided by KD of this variant
FcgRIIaH = target: T1, FcgRIIaH
Experimental: (§1) H240-Kn204/H240-Hl211/L73-k0 and H240-Kn205/H240-Hl212/L73-k0 were prepared according to the method of Reference Example 1, by combining H240-Kn204 as one of the H chains and L73-k0 as the L chains with H240-Hl211 as the other H chain, and by combining H240-Kn205 as one of the H chains and L73-k0 as the L chains with H240-Hl212 as the other H chain, and then expressing them. The binding of the prepared variants to FcgRIa, FcgRIIaR, FcgRIIaH, FcgRIIb, FcgRIIIaF, and FcgRIIIaV was measured according to the method of Reference Example 8.
(§2) “fold 2aR”, “fold 2aH”, “fold 2b”, “fold 3aF”, and “fold 3aV” show the relative binding activity of each variant to FcgRIIaR, FcgRIIaH, FcgRIIb, FcgRIIIaF, and FcgRIIIaV, respectively, when the binding activity of H240-Kn033/H240-Hl033/L73-k0, a variant produced by introducing only alterations that promote formation of a heterodimerized antibody into a native IgG1, is defined as 1. Specifically, they are values obtained by dividing the KD value of H240-Kn033/H240-Hl033/L73-k0 for each FcgR by the KD value of an individual variant for each FcgR.
(§3) Analysis of interaction between objective antibody and the FcγR was carried out using Biacore T100 (GE Healthcare), Biacore T200, Biacore A100, and Biacore 4000. HBS-EP+ (GE Healthcare) was used as the running buffer, and the measurement temperature was set to 25° C. Chips produced by immobilizing the antigen peptide by the amine coupling method to a Series S sensor Chip CM5 (GE Healthcare), chips produced by allowing preliminarily biotinylated antigen peptides to interact with and immobilize onto a Series S Sensor Chip SA (certified) (GE Healthcare), chips produced by immobilizing Protein L (ACTIGEN, BioVision) to Series S Sencor Chip CM5 (GE Healthcare), or chips produced by immobilizing Protein A/G (Thermo Scientific) to Series S Sencor Chip CM5 (GE Healthcare) were used. Antibodies of interest were captured onto these chips, and allowed to interact to each FcγR diluted with running buffer.

FcgRIIaR = target: T2, FcgRIIaR
Experimental: as §1, §2, §3

FcgRIIIaV = target: T4, FcgRIIIaV (human, UniProt P08637 17-208)
T4 construct: extracellular domain; also called FcγRIIIa V; 3aV; not shown: His tag attached to the C terminus
T4 sequence (P08637 17-208 F176V limits assumed): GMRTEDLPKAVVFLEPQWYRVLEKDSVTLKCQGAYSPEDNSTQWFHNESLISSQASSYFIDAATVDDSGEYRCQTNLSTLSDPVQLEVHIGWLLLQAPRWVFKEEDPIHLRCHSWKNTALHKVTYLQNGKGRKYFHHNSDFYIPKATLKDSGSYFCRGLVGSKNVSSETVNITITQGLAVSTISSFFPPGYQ
Experimental: as §1, §2, §3

FcgRIIIaF = target: T5, FcgRIIIaF (human, UniProt P08637 17-208)
T5 construct: extracellular domain; also called FcγRIIIa F; 3aF; not shown: His tag attached to the C terminus
T5 sequence (P08637 17-208): as the sequence (P08637 17-208 F176V limits assumed) above, with V160F counted along it
Experimental: as §1, §2, §3

FcgRIIb = target: T3, FcgRIIb
Experimental: as §1, §2, §3

fold 2aH (FcgRIIaH) [fold]	fold 2aR (FcgRIIaR) [fold]	fold 3aV (FcgRIIIaV) [fold]	fold 3aF (FcgRIIIaF) [fold]	fold 2b (FcgRIIb) [fold]	Binder
2.3	1.2	82.8	138	0.6	H240-Kn212/H240-Hl076/L73-k0 (antibody, human IgG1, kappa, Anti-epiregulin heterodimerized IgG1, knobs-into-holes) heavy 1: QDQLVQSGAEVKKPGASVKVSCKASGFNIKDTYIQWVRQAPGQGLEWMGRIDPLRKQTKYREKFEGRVTITADTSTNTAYMELSSLRSEDTAVYYCVRSGREFDYWGQGTLVTVSSASTKGPSVFPLAPSSKSTSGGTAALGCLVKDYFPEPVTVSWNSGALTSGVHTFPAVLQSSGLYSLSSVVTVPSSSLGTQTYICNVNHKPSNTKVDKKVEPKSCDKTHTCPPCPAPETQWGPMVFLFPPKPKDTLMISRTPEVTCVVVDVSDEEPEVKFNWYVDGVEVHNAKTKPREEQYNATYRVVSVLTVLHQDWLNGKEYKCKVSNKALPAPIEKTISKAKGQPREPQVCTLPPSRDELTKNQVSLWCLVKGFYPSDIAVEWESNGQPENNYKTTPPVLDSDGSFFLYSKLTVDKSRWQQGNVFSCSVMHEALHNHYTQKSLSLSP heavy 2: QDQLVQSGAEVKKPGASVKVSCKASGFNIKDTYIQWVRQAPGQGLEWMGRIDPLRKQTKYREKFEGRVTITADTSTNTAYMELSSLRSEDTAVYYCVRSGREFDYWGQGTLVTVSSASTKGPSVFPLAPSSKSTSGGTAALGCLVKDYFPEPVTVSWNSGALTSGVHTFPAVLQSSGLYSLSSVVTVPSSSLGTQTYICNVNHKPSNTKVDKKVEPKSCDKTHTCPPCPAPELLGGPSVFLFPPKPKDTLMISRTPEVTCVVVDVSHEEPEVKFNWYVDGVEVHNAKTKPREEQYNSTYRVVSVLTVLHQDWLNGKEYKCKVSNDALPMPIEETISKAKGQPREPQVYTLPPSRCELTKNQVSLSCAVKGFYPSDIAVEWESNGQPENNYKTTPPVLDSDGSFFLVSKLTVDKSRWQQGNVFSCSVMHEALHNHYTQKSLSLSP light: DIQMTQSPSSLSASVGDRVTITCRASQDIHKYIAWYQQKPGQAPRLLIQYTSTLQPGVPSRFSGSGSGTDYTFTISSLQPEDIATYYCLQYEQLRTFGGGTKVEIKRTVAAPSVFIFPPSDEQLKSGTASVVCLLNNFYPREAKVQWKVDNALQSGNSQESVTEQDSKDSTYSLSSTLTLSKADYEKHKVYACEVTHQGLSSPVTKSFNRGEC
2.5	0.9	65.8	112	0.5	H240-Kn213/H240-Hl076/L73-k0 (antibody, human IgG1, kappa, Anti-epiregulin heterodimerized IgG1, knobs-into-holes) heavy 1: QDQLVQSGAEVKKPGASVKVSCKASGFNIKDTYIQWVRQAPGQGLEWMGRIDPLRKQTKYREKFEGRVTITADTSTNTAYMELSSLRSEDTAVYYCVRSGREFDYWGQGTLVTVSSASTKGPSVFPLAPSSKSTSGGTAALGCLVKDYFPEPVTVSWNSGALTSGVHTFPAVLQSSGLYSLSSVVTVPSSSLGTQTYICNVNHKPSNTKVDKKVEPKSCDKTHTCPPCPAPEAQWGPMVFLFPPKPKDTLMISRTPEVTCVVVDVSDEEPEVKFNWYVDGVEVHNAKTKPREEQYNATYRVVSVLTVLHQDWLNGKEYKCKVSNKALPAPIEKTISKAKGQPREPQVCTLPPSRDELTKNQVSLWCLVKGFYPSDIAVEWESNGQPENNYKTTPPVLDSDGSFFLYSKLTVDKSRWQQGNVFSCSVMHEALHNHYTQKSLSLSP heavy 2: QDQLVQSGAEVKKPGASVKVSCKASGFNIKDTYIQWVRQAPGQGLEWMGRIDPLRKQTKYREKFEGRVTITADTSTNTAYMELSSLRSEDTAVYYCVRSGREFDYWGQGTLVTVSSASTKGPSVFPLAPSSKSTSGGTAALGCLVKDYFPEPVTVSWNSGALTSGVHTFPAVLQSSGLYSLSSVVTVPSSSLGTQTYICNVNHKPSNTKVDKKVEPKSCDKTHTCPPCPAPELLGGPSVFLFPPKPKDTLMISRTPEVTCVVVDVSHEEPEVKFNWYVDGVEVHNAKTKPREEQYNSTYRVVSVLTVLHQDWLNGKEYKCKVSNDALPMPIEETISKAKGQPREPQVYTLPPSRCELTKNQVSLSCAVKGFYPSDIAVEWESNGQPENNYKTTPPVLDSDGSFFLVSKLTVDKSRWQQGNVFSCSVMHEALHNHYTQKSLSLSP light: DIQMTQSPSSLSASVGDRVTITCRASQDIHKYIAWYQQKPGQAPRLLIQYTSTLQPGVPSRFSGSGSGTDYTFTISSLQPEDIATYYCLQYEQLRTFGGGTKVEIKRTVAAPSVFIFPPSDEQLKSGTASVVCLLNNFYPREAKVQWKVDNALQSGNSQESVTEQDSKDSTYSLSSTLTLSKADYEKHKVYACEVTHQGLSSPVTKSFNRGEC
1.6	0.7	60	85.3	0.5	H240-Kn214/H240-Hl076/L73-k0 (antibody, human IgG1, kappa, Anti-epiregulin heterodimerized IgG1, knobs-into-holes) heavy 1: QDQLVQSGAEVKKPGASVKVSCKASGFNIKDTYIQWVRQAPGQGLEWMGRIDPLRKQTKYREKFEGRVTITADTSTNTAYMELSSLRSEDTAVYYCVRSGREFDYWGQGTLVTVSSASTKGPSVFPLAPSSKSTSGGTAALGCLVKDYFPEPVTVSWNSGALTSGVHTFPAVLQSSGLYSLSSVVTVPSSSLGTQTYICNVNHKPSNTKVDKKVEPKSCDKTHTCPPCPAPEGQWGPMVFLFPPKPKDTLMISRTPEVTCVVVDVSDEEPEVKFNWYVDGVEVHNAKTKPREEQYNATYRVVSVLTVLHQDWLNGKEYKCKVSNKALPAPIEKTISKAKGQPREPQVCTLPPSRDELTKNQVSLWCLVKGFYPSDIAVEWESNGQPENNYKTTPPVLDSDGSFFLYSKLTVDKSRWQQGNVFSCSVMHEALHNHYTQKSLSLSP heavy 2: QDQLVQSGAEVKKPGASVKVSCKASGFNIKDTYIQWVRQAPGQGLEWMGRIDPLRKQTKYREKFEGRVTITADTSTNTAYMELSSLRSEDTAVYYCVRSGREFDYWGQGTLVTVSSASTKGPSVFPLAPSSKSTSGGTAALGCLVKDYFPEPVTVSWNSGALTSGVHTFPAVLQSSGLYSLSSVVTVPSSSLGTQTYICNVNHKPSNTKVDKKVEPKSCDKTHTCPPCPAPELLGGPSVFLFPPKPKDTLMISRTPEVTCVVVDVSHEEPEVKFNWYVDGVEVHNAKTKPREEQYNSTYRVVSVLTVLHQDWLNGKEYKCKVSNDALPMPIEETISKAKGQPREPQVYTLPPSRCELTKNQVSLSCAVKGFYPSDIAVEWESNGQPENNYKTTPPVLDSDGSFFLVSKLTVDKSRWQQGNVFSCSVMHEALHNHYTQKSLSLSP light: DIQMTQSPSSLSASVGDRVTITCRASQDIHKYIAWYQQKPGQAPRLLIQYTSTLQPGVPSRFSGSGSGTDYTFTISSLQPEDIATYYCLQYEQLRTFGGGTKVEIKRTVAAPSVFIFPPSDEQLKSGTASVVCLLNNFYPREAKVQWKVDNALQSGNSQESVTEQDSKDSTYSLSSTLTLSKADYEKHKVYACEVTHQGLSSPVTKSFNRGEC
